The values below are quoted from earlier work in publication PMC7821625.

As usually defined, the Kd is the concentration at which binding is half-saturated.

The target in data set [1] is fibronectin (Homo sapiens) (UniProt P02751).
Data set [2] has as its target plasminogen (Homo sapiens) (UniProt P00747).
Chain of UniProt P00747 (P00747 20-810): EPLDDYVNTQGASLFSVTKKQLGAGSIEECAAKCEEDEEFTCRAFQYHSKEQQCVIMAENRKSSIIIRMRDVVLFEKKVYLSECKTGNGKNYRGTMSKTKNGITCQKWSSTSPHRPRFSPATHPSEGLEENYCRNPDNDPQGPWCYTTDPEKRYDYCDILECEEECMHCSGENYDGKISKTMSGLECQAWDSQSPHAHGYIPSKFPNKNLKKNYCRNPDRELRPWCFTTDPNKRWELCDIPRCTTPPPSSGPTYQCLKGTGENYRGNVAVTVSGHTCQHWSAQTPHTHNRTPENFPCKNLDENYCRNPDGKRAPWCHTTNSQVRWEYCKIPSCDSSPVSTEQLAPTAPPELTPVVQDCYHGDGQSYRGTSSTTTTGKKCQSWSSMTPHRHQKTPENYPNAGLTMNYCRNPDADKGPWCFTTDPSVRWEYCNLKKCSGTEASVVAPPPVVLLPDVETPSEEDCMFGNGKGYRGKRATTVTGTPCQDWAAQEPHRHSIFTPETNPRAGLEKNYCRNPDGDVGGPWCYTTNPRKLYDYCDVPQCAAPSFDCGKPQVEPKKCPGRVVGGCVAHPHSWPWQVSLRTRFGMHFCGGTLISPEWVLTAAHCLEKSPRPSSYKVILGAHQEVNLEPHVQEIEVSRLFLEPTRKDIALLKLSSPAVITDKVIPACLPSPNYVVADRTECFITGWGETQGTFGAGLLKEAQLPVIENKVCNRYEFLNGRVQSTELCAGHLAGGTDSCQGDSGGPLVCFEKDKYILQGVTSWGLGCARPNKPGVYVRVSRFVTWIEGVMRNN

Chain of UniProt P02751 (P02751 32-2477): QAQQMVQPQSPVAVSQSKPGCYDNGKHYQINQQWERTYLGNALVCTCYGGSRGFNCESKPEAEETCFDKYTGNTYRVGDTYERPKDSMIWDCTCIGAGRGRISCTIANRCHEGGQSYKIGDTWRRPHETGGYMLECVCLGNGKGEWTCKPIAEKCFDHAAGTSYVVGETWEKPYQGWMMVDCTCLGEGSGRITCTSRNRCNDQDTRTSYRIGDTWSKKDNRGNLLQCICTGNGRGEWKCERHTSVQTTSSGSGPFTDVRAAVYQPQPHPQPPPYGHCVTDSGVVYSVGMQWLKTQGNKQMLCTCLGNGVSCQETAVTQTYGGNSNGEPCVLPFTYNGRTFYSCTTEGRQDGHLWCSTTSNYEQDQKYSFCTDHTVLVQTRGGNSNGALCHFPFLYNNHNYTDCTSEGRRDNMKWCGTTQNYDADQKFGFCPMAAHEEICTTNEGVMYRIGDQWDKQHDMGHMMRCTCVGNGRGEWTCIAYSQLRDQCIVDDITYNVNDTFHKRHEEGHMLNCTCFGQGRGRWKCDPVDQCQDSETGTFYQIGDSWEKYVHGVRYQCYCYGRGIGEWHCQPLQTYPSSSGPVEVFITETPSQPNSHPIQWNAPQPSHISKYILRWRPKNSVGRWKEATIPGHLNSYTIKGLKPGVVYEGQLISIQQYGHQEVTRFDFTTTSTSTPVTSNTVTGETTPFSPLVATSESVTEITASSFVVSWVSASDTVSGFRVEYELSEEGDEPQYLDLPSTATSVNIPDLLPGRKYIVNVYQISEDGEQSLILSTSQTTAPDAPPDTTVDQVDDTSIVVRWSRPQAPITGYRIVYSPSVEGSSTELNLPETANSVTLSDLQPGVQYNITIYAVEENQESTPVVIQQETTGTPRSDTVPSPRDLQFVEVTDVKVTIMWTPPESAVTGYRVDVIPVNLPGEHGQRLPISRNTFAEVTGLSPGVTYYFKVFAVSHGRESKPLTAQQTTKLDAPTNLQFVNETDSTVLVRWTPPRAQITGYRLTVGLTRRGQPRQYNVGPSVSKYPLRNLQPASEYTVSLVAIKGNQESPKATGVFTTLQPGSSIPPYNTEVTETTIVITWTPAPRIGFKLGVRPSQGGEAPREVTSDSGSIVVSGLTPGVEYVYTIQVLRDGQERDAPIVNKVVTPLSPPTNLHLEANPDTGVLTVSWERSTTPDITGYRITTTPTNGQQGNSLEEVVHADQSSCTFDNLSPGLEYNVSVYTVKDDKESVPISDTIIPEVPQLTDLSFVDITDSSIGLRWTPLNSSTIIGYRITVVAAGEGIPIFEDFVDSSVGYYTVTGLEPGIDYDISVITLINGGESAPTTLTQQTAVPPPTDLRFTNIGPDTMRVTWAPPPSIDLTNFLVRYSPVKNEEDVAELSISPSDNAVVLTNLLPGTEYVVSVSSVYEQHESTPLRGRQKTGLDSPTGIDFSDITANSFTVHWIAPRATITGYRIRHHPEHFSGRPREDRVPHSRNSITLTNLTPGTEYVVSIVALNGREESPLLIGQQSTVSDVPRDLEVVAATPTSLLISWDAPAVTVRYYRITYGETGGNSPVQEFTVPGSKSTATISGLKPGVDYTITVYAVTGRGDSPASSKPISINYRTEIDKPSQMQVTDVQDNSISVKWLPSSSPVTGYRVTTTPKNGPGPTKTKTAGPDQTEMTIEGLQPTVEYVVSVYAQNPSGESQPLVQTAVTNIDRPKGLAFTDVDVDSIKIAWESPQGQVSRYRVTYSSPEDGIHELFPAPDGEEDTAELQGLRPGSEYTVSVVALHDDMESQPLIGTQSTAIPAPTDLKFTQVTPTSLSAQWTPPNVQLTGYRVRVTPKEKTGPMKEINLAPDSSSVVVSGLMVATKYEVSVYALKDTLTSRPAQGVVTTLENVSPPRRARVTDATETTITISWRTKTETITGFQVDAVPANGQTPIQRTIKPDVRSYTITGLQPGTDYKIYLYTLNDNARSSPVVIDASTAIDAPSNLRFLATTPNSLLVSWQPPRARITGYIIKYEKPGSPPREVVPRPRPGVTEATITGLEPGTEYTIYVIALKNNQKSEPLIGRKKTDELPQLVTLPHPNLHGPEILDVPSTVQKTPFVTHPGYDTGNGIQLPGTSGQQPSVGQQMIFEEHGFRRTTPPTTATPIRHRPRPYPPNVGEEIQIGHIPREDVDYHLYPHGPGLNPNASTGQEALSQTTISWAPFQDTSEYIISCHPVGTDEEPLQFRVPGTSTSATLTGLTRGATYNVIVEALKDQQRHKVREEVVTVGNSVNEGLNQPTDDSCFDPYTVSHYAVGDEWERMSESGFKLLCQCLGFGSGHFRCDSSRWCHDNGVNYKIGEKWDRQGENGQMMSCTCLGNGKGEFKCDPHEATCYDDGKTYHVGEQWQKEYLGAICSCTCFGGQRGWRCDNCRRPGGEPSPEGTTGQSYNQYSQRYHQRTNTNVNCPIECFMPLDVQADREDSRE

For the substance LigA LigA7'-13 (from UniProt Q72MA6), the Kd in data set [1] is 126 nM; in data set [2], 1200 nM.
